From patent publication US7910100B2, “Antibodies directed to the mammalian EAG1 ion channel protein” (Max-Planck-Gesellschaft zur Forderung der Wissen, priority 2004, dated 2011)

Assays:
Eag2 = experiment: BIAcore cross-reactivity with Eag family member Eag2; format: binding; conditions: 10 μg/ml antibody, flow rate 20 μl/min; chip coated with Eag2 equivalent regions
Procedure: (§1) In order to analyse cross-reactivity of anti-Eag1 antibodies of the invention with the most homologous Eag family member Eag2 a BIAcore™ binding analysis was performed. BIAcore chips were coated with Eag1 C-terminus (amino acids 694 to 962), the H5 region (amino acids 374 to 452) or Eag2 (the equivalent regions fused in a single construct). The interaction with anti-Eag1 antibodies ImAb1 and ImAb3 were analysed using 10 μg/ml antibody at a flow rate of 20 μl/min.

Eag1 current = molecular target: T1, Eag1 current (Homo sapiens, UniProt O95259); experiment: Two-electrode voltage clamp in Eag1-expressing oocytes; format: cell-based; conditions: 10% hybridoma supernatant
T1 construct: expressed in transfected cells
T1 sequence (O95259 1-962 isoform O95259-2): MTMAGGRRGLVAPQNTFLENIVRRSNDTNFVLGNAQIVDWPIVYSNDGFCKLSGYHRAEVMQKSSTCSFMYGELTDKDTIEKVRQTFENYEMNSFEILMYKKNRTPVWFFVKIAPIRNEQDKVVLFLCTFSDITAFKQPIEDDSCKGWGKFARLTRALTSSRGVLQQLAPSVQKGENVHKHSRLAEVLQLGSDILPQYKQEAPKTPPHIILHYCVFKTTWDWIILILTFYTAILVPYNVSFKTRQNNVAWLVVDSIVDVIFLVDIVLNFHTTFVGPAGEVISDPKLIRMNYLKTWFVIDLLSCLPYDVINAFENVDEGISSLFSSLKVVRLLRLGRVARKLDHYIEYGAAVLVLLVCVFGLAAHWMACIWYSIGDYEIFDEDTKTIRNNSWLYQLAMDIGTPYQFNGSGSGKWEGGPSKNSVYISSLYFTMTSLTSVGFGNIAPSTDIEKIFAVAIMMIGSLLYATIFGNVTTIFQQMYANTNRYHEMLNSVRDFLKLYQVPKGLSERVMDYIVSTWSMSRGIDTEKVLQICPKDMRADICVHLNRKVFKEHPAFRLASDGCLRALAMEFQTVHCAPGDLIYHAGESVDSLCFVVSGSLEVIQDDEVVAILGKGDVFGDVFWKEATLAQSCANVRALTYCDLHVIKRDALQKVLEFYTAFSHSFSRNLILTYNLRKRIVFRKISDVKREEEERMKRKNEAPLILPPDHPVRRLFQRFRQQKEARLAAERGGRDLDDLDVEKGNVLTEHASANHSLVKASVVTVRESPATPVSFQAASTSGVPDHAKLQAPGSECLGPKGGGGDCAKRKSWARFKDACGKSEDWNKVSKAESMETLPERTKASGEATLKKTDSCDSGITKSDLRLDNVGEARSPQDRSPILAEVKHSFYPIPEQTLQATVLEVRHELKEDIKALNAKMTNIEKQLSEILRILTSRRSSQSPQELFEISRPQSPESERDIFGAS
Procedure: In order to analyse the functional properties of anti-Eag1 antibodies of the invention were analysed by a two-electrode voltage clamp experiment. Therefore, Oocyte preparation and electrophysiological recordings were performed as described in Stühmer, W., 1992, Methods in Enzymology 207. Oocytes were injected with synthetic mRNA coding for Eag1, incubated for 48 h and recorded in NFR (115 mM NaCl, 1.8 CaCl2, 2.5 KCl, 10 Hepes pH 7.2) until stable traces were recorded. Then, 10% of the corresponding hybridoma supernatant producing ImAb1 or ImAb3 was added to the chamber and current amplitudes were further monitored.

IPC-298 melanoma cells = experiment: IPC-298 cell proliferation assay (AlamarBlue); format: cell-based, human; conditions: 5 μg/ml antibody, 7 days, pre-incubation with 40 mM KCl
Procedure: In vitro experiments were conducted in order to determine the ability of the antibodies of the invention to inhibit cancer cell proliferation. 1000 IPC-298 cells were seeded in 60 μl/well 10% FCS-containing medium (DMEM […] glucose) on 96-well plates overnight. Cells were pre-incubated in quadruplicates with 5 μg/ml anti-Eag1 monoclonal antibodies, ImAb1 and ImAb3, diluted in FCS-containing medium with 40 mM KCl for 1 h at 37° C. in 5% CO2. Treatment of the cells with 40 mM KCl ensures an open conformation of the ion channel Eag1 and might accelerate binding of the monoclonal anti-EAG1 antibodies to its corresponding epitope. After 1 h incubation, supernatants were removed and replaced with 100 μl/well FCS-containing medium with 5 μg/ml anti-Eag1 antibodies, ImAb1 and ImAb3. Cells were then incubated at 37° C. in 5% CO2 for 7 days. In order to assess proliferation and cell viability 10 μl/well AlamarBlue™ (BIOSOURCE) was added and incubated at 37° C. in the dark. Absorbance was measured using a spectrofluorometer at 590 nm every 30 min.

Eag1 = experiment: BIAcore binding analysis on Eag1 C-terminus and H5 region; conditions: 10 μg/ml antibody, flow rate 20 μl/min; chips coated with Eag1 C-terminus (aa 694 to 962) or H5 region (aa 374 to 452)
Procedure: as §1

B1: ImAb1: mouse monoclonal anti-Eag1 antibody; VL SEQ ID NO: 43, VH SEQ ID NO: 44; binds C-terminus of Eag1 (antibody, listed as Mus musculus)
heavy: MNFGFSLIFLVLVLKGVQCEVKLVESGGGLVKPGGSLKLSCAASGFTFSNYAMSWVRQTPEKRLEWVASISSDGDTYFPDNVKGRFTISRENAGNILFLQMSSLRSEDTAMYYCARGFMITFWGQGTLVTVSAAKTTPPSVYPLAPGCGDTTGSSVTLGCLVKGYFPESVTVTWNSGSLSSSVHTFPALLQSGLYTMSSSVTVPSSTWPSQTVTCSVAHPASSTTVD
light: MDMRAPAQFFGILLLWFPGIRCDIKMTQSPSSMYASLGERVTITCKASQDIKSYLSWYQQKPWKSPKILIYYATSLADGVPSRISGSGSGQDYSLTISSLESDDTATYYCLQHGESPYTFGGGTKLEIKRADAAPTVSIFPPSSEQLTSGGASVVCFLNNFYPKDINVKWKIDGSERQNGVLNSWTDQDSKDSTYSMSSTLTLTKDEYERHNSYTCEATHKTSTSPIVKSFNRNEC
- cross-reactivity with Eag2 (Eag2): do not cross-react with Eag2
- inhibition of Eag1 current (Eag1 current): No inhibition of Eag1 current was detected
- inhibition of cell proliferation (IPC-298 melanoma cells): inhibit human cancer cell growth
- binding region on Eag1 antigen (Eag1): specifically binds to the C-terminus of the Eag1 antigen
